Two molecules from patent US20240350583A1, “COMPOSITION FOR PREVENTING OR TREATING FIBROTIC DISEASES, COMPRISING HAPLN1” (Chung Ang University Industry Academic Cooperation …, priority 2021, published 2024) can be followed below.

Type in all cases: cell-based
Assay [1] relates to human kidney renal tubule cell (Human Kidney 2, HK-2). Description: Cell morphological changes of TGFβ1-treated HK-2 cells. The following applies: TGFβ1 10 ng/ml 24 h. On the procedure:
(1) Human kidney renal tubule cells (HK-2) were seeded (3.0×10^5 cells/well) in a 6-well plate according to the experimental scheme of FIG. 8A and incubated in RPMI 1640 Medium (11875-093, Gibco) including 10% FBS for 24 hours in an incubator at 37° C. 5% CO2.
(2) Afterwards, the plates were washed several times with PBS, and each well of the plate was treated with TGFβ1 (10 ng/ml) and incubated for 24 hours.
(3) Subsequently, the plates were then treated with the composition of the present disclosure (rhHAPLN1 protein content of 0, 5, 10, 20, 50 and 100 ng/ml) and pirfenidone 0.2 mg/mL (200 μg/mL), respectively, and incubated for 24 hours.
(4) The wells containing each sample were then washed twice with 1×PBS, treated with 4% paraformaldehyde and fixed for 1 hour.
(5) After washing twice with 1×PBS, the shape or morphology of the cells was observed under a microscope.

The test system of assay [2] is renal proximal tubule epithelial cell (RPTEC). Description: Age-induced fibrosis of RPTEC (passage 11), αSMA western blot. The following applies: aged cells (P11); rhHAPLN1 100 ng/ml; 72 hours. On the procedure: (1) Renal proximal tubule epithelial cell (RPTEC) of the 3rd passage culture and 10th passage culture were seeded (5.0×10^5 cells) in 60Φ culture dishes and cultured in complete renal epithelial cell medium (ATCC PCS-400-030+ATCC PCS-400-040) in an incubator at 37° C. 5% CO2 for 24 hours.
(2) Subsequently, the cells were then treated with the composition of the present disclosure (rhHAPLN1 protein content of 0, 10, and 100 ng/ml, respectively) and cultured for an additional 72 hours.
(4) After washing three times with ice-cold PBS, each well was treated with 300 μl of RIPA lysis and extraction buffer including protease inhibitors and phosphatase inhibitors, scraped with a scraper to harvest cells, and transferred to an E-tube.
(5) By centrifugation (12000 rpm, 20 minutes, 4° C.), only the supernatant was obtained, and BCA assay was performed to obtain quantitative protein values.
(6) Using a 4% to 15% precast acrylamide PAGE gel, proteins were loaded at 20 μg per lane and run (80V-20 minutes, 120V-1 hour 30 minutes).
(7) Western blot was performed on the samples. Here, anti-αSMA Ab (Abcam, ab7817), anti-GAPDH Ab (Santa Cruz, sc-32233) were used as primary antibodies and HRP-conjugated anti-mouse IgG Ab (CST, #7076) as secondary antibodies.
On the technique in general: In western blotting, separated proteins are transferred to a membrane and probed.

The subject of assay [3] is SAEMyoF system (small airway epithelial cells and adult fibroblasts). Description: BioMAP Fibrosis panel, SAEMyoF system (pulmonary fibrosis model), ELISA. From the text: The anti-fibrotic action effect of the composition of the present disclosure on pulmonary fibrosis and kidney fibrosis was verified by examining the expression level of various fibrosis markers using the BioMAP Fibrosis Panel (provided by Eurofins discovery).
BioMAP Fibrosis panel consists of three models, SAEMyoF system (co-culturing small airway epithelial cells and adult fibroblasts), REMyOF system (co-culture of renal proximal tubule epithelial cells and adult fibroblasts), and MyOF system (differentiated lung myofibroblasts). Here, the SAEMyoF system represents interstitial lung diseases (IDL), including pulmonary fibrotic diseases such as idiopathic pulmonary fibrosis (IPF), and the REMyOF system represents kidney fibrosis disease, which is associated with end-stage renal failure. However, experiments were conducted to confirm the effect of the MyoF system only on myofibroblasts.
(1) Each primary cell was used by pooling cells from multiple donors (n=3 to 6), and cells were first cultured in 96-well plates to confluence before adding a peripheral blood mononuclear cell (PBMC).
(2) Subsequently, the cells were then each treated with the composition of the present disclosure (rhHAPLN1 protein content of 0, 3.7, 11, and 33 ng/ml) at different concentrations and cultured for 1 hour.
(3) The plates were then treated with TNF and TGFβ1 and incubated for 48 hours.
(4) Direct enzyme-linked immunosorbent assay (ELISA) was performed on the expression levels of various biomarkers.
Each quantitative value was compared as a relative fold change compared to the vehicle control. Statistical processing was performed using unpaired t-test, significant differences vs vehicle control, *p<0.05, **p<0.01, and ***p<0.001.
For orientation: In an ELISA, binding on a coated surface is turned into a signal by an enzyme label.

On to `Cc1ccc(=O)n(-c2ccccc2)c1` [pirfenidone, reference compound], for which, in assay [1] (then pirfenidone 0.2 mg/mL 24 h), the “cell morphology after TGFβ1-induced sharp fibrotic form (FIG. 8B)” value is reported as “round”.

B1: rhHAPLN1: recombinant human HAPLN1 protein of SEQ ID NO: 1 produced in CHO-K1 cells, stabilized in acetic acid buffer, sucrose, PS80, pH 5.0 (protein, listed as Homo sapiens)
chain: MKSLLLLVLISICWADHLSDNYTLDHDRAIHIQAENGPHLLVEAEQAKVFSHRGGNVTLPCKFYRDPTAFGSGIHKIRIKWTKLTSDYLKEVDVFVSMGYHKKTYGGYQGRVFLKGGSDSDASLVITDLTLEDYGRYKCEVIEGLEDDTVVVALDLQGVVFPYFPRLGRYNLNFHEAQQACLDQDAVIASFDQLYDAWRGGLDWCNAGWLSDGSVQYPITKPREPCGGQNTVPGVRNYGFWDKDKSRYDVFCFTSNFNGRFYYLIHPTKLTYDEAVQACLNDGAQIAKVGQIFAAWKILGYDRCDAGWLADGSVRYPISRPRRRCSPTEAAVRFVGFPDKKHKLYGVYCFRAYN
Turning to B1, the “decrease of expression amount of αSMA protein compared to composition without rhHAPLN1 (FIG. 9B)” value in assay [2] was “about ⅓”. Further, the “cell morphology after TGFβ1-induced sharp fibrotic form (FIG. 8B)” value in assay [1] (then rhHAPLN1 5-100 ng/ml 24 h) is given as “the shape of the cells changed to round”. In assay [3] (regardless of rhHAPLN1 content (3.7, 11, 33 ng/ml)), the “expression level of collagen I compared to vehicle control (FIG. 11A)” value is listed as “consistently significantly reduced”. Further, the “expression level of αSMA, fold change compared to vehicle control (FIG. 11A)” value in assay [3] (regardless of rhHAPLN1 content (3.7, 11, 33 ng/ml), TNF and TGFβ1 48 hours) was no more than 0.9 fold. Moreover, the “expression level of collagen I, fold change compared to vehicle control (FIG. 11A)” value in assay [3] (rhHAPLN1 11 ng/ml) is given as no more than 0.8 fold.
